Values quoted from earlier work in article PMC11677424, “Early-Stage IM Treatment with the Host-Derived Immunostimulant CPDI-02 Increases Curative Protection of Healthy Outbred Mice Against Subcutaneous Infection with Community-Acquired Methicillin-Resistant Staphylococcus aureus USA300” (Pharmaceutics, 2024).

Tests used:
[1] = system: primary human mononuclear phagocytes (MPs); conditions: primary human MPs; cited from earlier work
Description: (§1) Complement Peptide-Derived Immunostimulant-02 (CPDI-02) (formerly EP67) is a novel, second-generation host-derived decapeptide agonist of […] (C5) Receptor 1 (C5aR1/C5a1R/CD88), which is based on the C-terminal pharmacophore of human Complement Peptide C5a (hC5a).

[2] = system: primary human neutrophils (NPs); conditions: cited from earlier work
Description: as §1

B1: hC5a: human Complement Peptide C5a, the parent molecule of CPDI-02 (protein, UniProt P01031 678-751, looked up)
C5a anaphylatoxin: TLQKKIEEIAAKYKHSVVKKCCYDGACVNNDETCEQRAARISLGPRCIKAFTECCVVASQLRANISHKDMQLGR
modifications: C5a anaphylatoxin
EC50 [1]: ~7 nM
EC50 [2]: ~7 nM
